The chains are these.
B1: Transmembrane protein 43 (Homo sapiens), Q9BTV4 (parent)
chain: MAANYSSTSTRREHVKVKTSSQPGFLERLSETSGGMFVGLMAFLLSFYLIFTNEGRALKTATSLAEGLSLVVSPDSIHSVAPENEGRLVHIIGALRTSKLLSDPNYGVHLPAVKLRRHVEMYQWVETEESREYTEDGQVKKETRYSYNTEWRSEIINSKNFDREIGHKNPSAMAVESFMATAPFVQIGRFFLSSGLIDKVDNFKSLSLSKLEDPHVDIIRRGDFFYHSENPKYPEVGDLRVSFSYAGLSGDDPDLGPAHVVTVIARQRGDQLVPFSTKSGDTLLLLHHGDFSAEEVFHRELRSNSMKTWGLRAAGWMAMFMGLNLMTRILYTLVDWFPVFRDLVNIGLKAFAFCVATSLTLLTVAAGWLFYRPLWALLIAGLALVPILVARTRVPAKKLE
partner: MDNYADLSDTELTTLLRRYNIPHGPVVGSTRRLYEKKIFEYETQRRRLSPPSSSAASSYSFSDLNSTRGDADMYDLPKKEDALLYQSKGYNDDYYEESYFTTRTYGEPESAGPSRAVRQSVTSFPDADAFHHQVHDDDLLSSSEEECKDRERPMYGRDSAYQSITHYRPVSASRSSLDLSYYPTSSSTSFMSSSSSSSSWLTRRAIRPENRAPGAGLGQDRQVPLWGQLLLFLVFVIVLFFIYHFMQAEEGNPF
B2: Transmembrane protein 43 (Homo sapiens), Q9BTV4 (parent)
chain: B1 chain

The first assay covers variants of B1. Conditions: with emd_human EMD.
For the variant MAANYSSTSTRREHVKVKTSSQPGFLERLSETSGGMFVGLMAFLLSFYLIFTNEGRALKTATSLAEGLSLVVSPDSIHSVAPENKGRLVHIIGALRTSKLLSDPNYGVHLPAVKLRRHVEMYQWVETEESREYTEDGQVKKETRYSYNTEWRSEIINSKNFDREIGHKNPSAMAVESFMATAPFVQIGRFFLSSGLIDKVDNFKSLSLSKLEDPHVDIIRRGDFFYHSENPKYPEVGDLRVSFSYAGLSGDDPDLGPAHVVTVIARQRGDQLVPFSTKSGDTLLLLHHGDFSAEEVFHRELRSNSMKTWGLRAAGWMAMFMGLNLMTRILYTLVDWFPVFRDLVNIGLKAFAFCVATSLTLLTVAAGWLFYRPLWALLIAGLALVPILVARTRVPAKKLE [E85K], the “effect of a mutation on the interaction” value is listed as “with no effect”. As to MAANYSSTSTRREHVKVKTSSQPGFLERLSETSGGMFVGLMAFLLSFYLIFTNEGRALKTATSLAEGLSLVVSPDSIHSVAPENEGRLVHVIGALRTSKLLSDPNYGVHLPAVKLRRHVEMYQWVETEESREYTEDGQVKKETRYSYNTEWRSEIINSKNFDREIGHKNPSAMAVESFMATAPFVQIGRFFLSSGLIDKVDNFKSLSLSKLEDPHVDIIRRGDFFYHSENPKYPEVGDLRVSFSYAGLSGDDPDLGPAHVVTVIARQRGDQLVPFSTKSGDTLLLLHHGDFSAEEVFHRELRSNSMKTWGLRAAGWMAMFMGLNLMTRILYTLVDWFPVFRDLVNIGLKAFAFCVATSLTLLTVAAGWLFYRPLWALLIAGLALVPILVARTRVPAKKLE [I91V], the “effect of a mutation on the interaction” value was “with no effect”.

The variants in the next assay derive from B1. As to conditions: with emd_human EMD. This is another data set of the same source.
In the case of MAANYSSTSTRREHVKVKTSSQPGFLERLSETSGGMFVGLMAFLLSFYLIFTNEGRALKTATSLAEGLSLVVSPDSIHSVAPENKGRLVHIIGALRTSKLLSDPNYGVHLPAVKLRRHVEMYQWVETEESREYTEDGQVKKETRYSYNTEWRSEIINSKNFDREIGHKNPSAMAVESFMATAPFVQIGRFFLSSGLIDKVDNFKSLSLSKLEDPHVDIIRRGDFFYHSENPKYPEVGDLRVSFSYAGLSGDDPDLGPAHVVTVIARQRGDQLVPFSTKSGDTLLLLHHGDFSAEEVFHRELRSNSMKTWGLRAAGWMAMFMGLNLMTRILYTLVDWFPVFRDLVNIGLKAFAFCVATSLTLLTVAAGWLFYRPLWALLIAGLALVPILVARTRVPAKKLE [E85K], the “effect of a mutation on the interaction” value is “decreasing interaction strength”. As to MAANYSSTSTRREHVKVKTSSQPGFLERLSETSGGMFVGLMAFLLSFYLIFTNEGRALKTATSLAEGLSLVVSPDSIHSVAPENEGRLVHVIGALRTSKLLSDPNYGVHLPAVKLRRHVEMYQWVETEESREYTEDGQVKKETRYSYNTEWRSEIINSKNFDREIGHKNPSAMAVESFMATAPFVQIGRFFLSSGLIDKVDNFKSLSLSKLEDPHVDIIRRGDFFYHSENPKYPEVGDLRVSFSYAGLSGDDPDLGPAHVVTVIARQRGDQLVPFSTKSGDTLLLLHHGDFSAEEVFHRELRSNSMKTWGLRAAGWMAMFMGLNLMTRILYTLVDWFPVFRDLVNIGLKAFAFCVATSLTLLTVAAGWLFYRPLWALLIAGLALVPILVARTRVPAKKLE [I91V], the “effect of a mutation on the interaction” value is given as “decreasing interaction strength”.

The variants in a further assay derive from B2. As to conditions: with sun2_human SUN2, Q9UH99.
Sequence of sun2_human SUN2, Q9UH99 (Q9UH99 whole entry): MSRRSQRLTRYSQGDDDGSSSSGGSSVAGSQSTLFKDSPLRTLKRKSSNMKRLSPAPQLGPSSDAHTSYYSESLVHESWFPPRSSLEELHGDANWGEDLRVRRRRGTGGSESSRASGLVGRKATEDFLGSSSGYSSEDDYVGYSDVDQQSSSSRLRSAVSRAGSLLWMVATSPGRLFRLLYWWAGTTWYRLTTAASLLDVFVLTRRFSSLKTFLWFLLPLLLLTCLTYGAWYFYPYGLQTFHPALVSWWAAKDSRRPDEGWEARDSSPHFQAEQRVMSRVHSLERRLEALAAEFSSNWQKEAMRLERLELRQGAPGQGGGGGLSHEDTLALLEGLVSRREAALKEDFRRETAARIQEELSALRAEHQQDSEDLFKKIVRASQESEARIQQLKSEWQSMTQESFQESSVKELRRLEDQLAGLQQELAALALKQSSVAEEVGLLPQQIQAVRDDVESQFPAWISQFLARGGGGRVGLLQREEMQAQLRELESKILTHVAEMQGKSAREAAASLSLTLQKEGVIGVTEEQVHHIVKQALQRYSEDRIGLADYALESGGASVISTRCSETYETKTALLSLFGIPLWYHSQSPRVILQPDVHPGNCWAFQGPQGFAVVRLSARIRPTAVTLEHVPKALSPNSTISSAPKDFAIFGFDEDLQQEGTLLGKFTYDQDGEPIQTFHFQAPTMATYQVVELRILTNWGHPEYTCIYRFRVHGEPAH
Consider MAANYSSTSTRREHVKVKTSSQPGFLERLSETSGGMFVGLMAFLLSFYLIFTNEGRALKTATSLAEGLSLVVSPDSIHSVAPENKGRLVHIIGALRTSKLLSDPNYGVHLPAVKLRRHVEMYQWVETEESREYTEDGQVKKETRYSYNTEWRSEIINSKNFDREIGHKNPSAMAVESFMATAPFVQIGRFFLSSGLIDKVDNFKSLSLSKLEDPHVDIIRRGDFFYHSENPKYPEVGDLRVSFSYAGLSGDDPDLGPAHVVTVIARQRGDQLVPFSTKSGDTLLLLHHGDFSAEEVFHRELRSNSMKTWGLRAAGWMAMFMGLNLMTRILYTLVDWFPVFRDLVNIGLKAFAFCVATSLTLLTVAAGWLFYRPLWALLIAGLALVPILVARTRVPAKKLE [E85K], for which the “effect of a mutation on the interaction” value is “decreasing interaction strength”. Same read-out and setting: as for MAANYSSTSTRREHVKVKTSSQPGFLERLSETSGGMFVGLMAFLLSFYLIFTNEGRALKTATSLAEGLSLVVSPDSIHSVAPENEGRLVHVIGALRTSKLLSDPNYGVHLPAVKLRRHVEMYQWVETEESREYTEDGQVKKETRYSYNTEWRSEIINSKNFDREIGHKNPSAMAVESFMATAPFVQIGRFFLSSGLIDKVDNFKSLSLSKLEDPHVDIIRRGDFFYHSENPKYPEVGDLRVSFSYAGLSGDDPDLGPAHVVTVIARQRGDQLVPFSTKSGDTLLLLHHGDFSAEEVFHRELRSNSMKTWGLRAAGWMAMFMGLNLMTRILYTLVDWFPVFRDLVNIGLKAFAFCVATSLTLLTVAAGWLFYRPLWALLIAGLALVPILVARTRVPAKKLE [I91V], the entry is “decreasing interaction strength”.
